Results published in publication doi:10.1101/495473v2.

Key:
Experiment in all cases: purified protein
Conditions in all cases: 5 mM MgCl2, 200 mM Tricine-NaOH pH 7.4, 37 °C
purified protein [1] = substrate: O=C(O)COP(=O)(O)O
purified protein [2] = substrate: C[C@H](OP(=O)(O)O)C(=O)O
purified protein [3] = substrate: O=P(O)(O)OC(CO)CO

B1: PbPGP (Plasmodium berghei ANKA) (protein)
chain: MSLIVSEASQNNYFKDSENSYNSFMKEWKIEKRVNVKDLYQNFEVFFFDCDGVLWRGDTVINGAIEVINKLISDNKKVYFITNNSTKSRDTLLGKFHKLGFTCVKKEHIICTSYAIAKYFHSKEEYKSRKKKIYVIGEKGICDELDALNLVWLGSYKDNDKKVIIQDEGEIQIDNNIGAVVVAIDFNINYYKIQYAQLCINGLDAEFIVSNKDPLANFTSNQQWAGTGSIVASIEQVSFKKPKVLGKPNLFMIESVLKSLNIDLSKVVMIGDRLDTDIFFAQNCKIKSILVSTGVTDANVFLNHNNLNIKPDYFMKSILEFL
B1 gave a Km (purified protein [1]) of 2526 ± 494 µM, a kcat (purified protein [1]) of 75.15 ± 7.86 s⁻¹ and a Km (purified protein [2]) of 4.773 ± 0.574 mM. The kcat (purified protein [2]) was 67.34 ± 8.31 s⁻¹, the Km (purified protein [3]) was 2110 ± 11 µM and the kcat (purified protein [3]) was 10.18 ± 0.08 s⁻¹.
